The results in this text go back to PMC10093973, “The RNA-Binding and RNA-Melting Activities of the Multifunctional Protein Nucleobindin 1” (International Journal of Molecular Sciences, 2023).

Data set [1] deals with T1, NUCB1 CaBD (Homo sapiens) (UniProt Q02818).
T1 sequence: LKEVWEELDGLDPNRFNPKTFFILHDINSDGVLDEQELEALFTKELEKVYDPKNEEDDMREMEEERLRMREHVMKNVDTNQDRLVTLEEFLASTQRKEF
Description: SPR. The note with it: SPR: 50 mM Tris-HCl pH 8.0, 200 mM NaCl, 0.1% Tween-20, with or without 2 mM CaCl2, 25 °C; 5'-biotinylated RNA immobilized, NUCB1 as analyte, 1:1 model.

In another data set the target is T2, NUCB1 ΔN (Homo sapiens) (UniProt Q02818).
T2 sequence: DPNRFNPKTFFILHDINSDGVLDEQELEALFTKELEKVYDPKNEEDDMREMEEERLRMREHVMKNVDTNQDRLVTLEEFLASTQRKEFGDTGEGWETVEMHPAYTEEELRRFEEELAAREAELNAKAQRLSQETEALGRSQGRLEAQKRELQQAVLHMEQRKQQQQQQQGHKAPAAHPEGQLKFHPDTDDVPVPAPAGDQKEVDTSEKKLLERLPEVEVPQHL
Description: SPR. The note with it: SPR: 50 mM Tris-HCl pH 8.0, 200 mM NaCl, 0.1% Tween-20, with or without 2 mM CaCl2, 25 °C; 5'-biotinylated RNA immobilized, NUCB1 as analyte, 1:1 model.

A further data set concerns the target T3, NUCB1 ΔZ (Homo sapiens) (UniProt Q02818).
T3 sequence: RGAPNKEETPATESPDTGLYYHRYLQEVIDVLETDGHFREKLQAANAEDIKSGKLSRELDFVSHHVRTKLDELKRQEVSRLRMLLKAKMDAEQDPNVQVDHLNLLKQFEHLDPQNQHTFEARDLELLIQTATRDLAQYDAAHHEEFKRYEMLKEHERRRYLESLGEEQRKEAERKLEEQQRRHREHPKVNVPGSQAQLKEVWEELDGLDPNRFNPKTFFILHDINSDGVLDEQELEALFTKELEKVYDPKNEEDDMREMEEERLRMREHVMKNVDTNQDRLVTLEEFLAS
Description: SPR. The note with it: SPR: 50 mM Tris-HCl pH 8.0, 200 mM NaCl, 0.1% Tween-20, with or without 2 mM CaCl2, 25 °C; 5'-biotinylated RNA immobilized, NUCB1 as analyte, 1:1 model.

Data set [2] concerns the molecule itself. Description: SEC; size-exclusion chromatography of the final preparations on Superdex 200 in 150 mM NaCl, 50 mM Tris-HCl (pH 8.0); oligomeric state of each protein. Background: SEC sorts molecules by how far they enter the pores of the column.
The target in the next data set is T4, NUCB1 ΔZ (Homo sapiens, UniProt Q02818 31-320).
T4 sequence: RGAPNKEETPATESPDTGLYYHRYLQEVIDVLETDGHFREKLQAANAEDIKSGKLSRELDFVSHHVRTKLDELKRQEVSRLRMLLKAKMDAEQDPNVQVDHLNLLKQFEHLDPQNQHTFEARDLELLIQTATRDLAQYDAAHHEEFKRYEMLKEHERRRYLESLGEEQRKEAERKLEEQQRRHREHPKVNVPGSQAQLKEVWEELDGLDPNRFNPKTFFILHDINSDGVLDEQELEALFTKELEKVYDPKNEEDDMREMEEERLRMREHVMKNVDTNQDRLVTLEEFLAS
Description: SPR; SPR: 50 mM Tris-HCl pH 8.0, 200 mM NaCl, 0.1% Tween-20, with or without 2 mM CaCl2, 25 °C; 5'-biotinylated RNA immobilized, NUCB1 as analyte, 1:1 model. The note with it: protein: recombinant; tags: N-terminal His6; label: 5'-biotin. In general terms: In SPR one partner is held on a chip, and binding of the other changes the refractive index at the surface.

A further data set deals with T5, NUCB1 ΔN (Homo sapiens, UniProt Q02818 239-461).
T5 sequence: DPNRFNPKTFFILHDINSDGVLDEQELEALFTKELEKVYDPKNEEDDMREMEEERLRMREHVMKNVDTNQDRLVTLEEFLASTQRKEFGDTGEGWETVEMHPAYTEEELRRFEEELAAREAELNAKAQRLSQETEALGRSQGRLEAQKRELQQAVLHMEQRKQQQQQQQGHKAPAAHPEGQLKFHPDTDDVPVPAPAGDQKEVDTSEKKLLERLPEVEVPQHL
Described as above. The note with it: protein: recombinant; tags: N-terminal His6; label: 5'-biotin.

The target of another data set is T6, NUCB1 CaBD (Homo sapiens, UniProt Q02818 228-326).
T6 sequence: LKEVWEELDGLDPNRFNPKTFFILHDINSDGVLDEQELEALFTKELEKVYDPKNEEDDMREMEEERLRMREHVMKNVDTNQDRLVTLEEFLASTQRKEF
The data set is described as above. The note with it: protein: recombinant; tags: N-terminal His6; label: 5'-biotin.

On to “GUGGUCAGUCGAGUGGAAAAAAAAAAAAAAAAAA [A-rich]”, for which the Kd (as a rule, the constant that tells how readily two partners part at equilibrium) was determined as 5.7 nM in data set [1], 1.4 nM with NUCB1 ΔN (Homo sapiens) and 0.3 nM with NUCB1 ΔZ (Homo sapiens).
On the same counts, the results for GUGGUCAGUCGAGUGGGGGGGG [G-rich] are 18.2 nM, 5.3 nM and 3.1 nM.
In the same order, the values of “GUGGUCAGUCGAGUGGUUUUUUUUUUUUUUUUUU [U-rich]” are 0.2 nM, 1.7 nM and 0.4 nM.

B1: Nucleobindin 1 (NUCB1) lacking the signal peptide (1-30 aa) (natural protein, human, UniProt Q02818 31-461, looked up)
chain: RGAPNKEETPATESPDTGLYYHRYLQEVIDVLETDGHFREKLQAANAEDIKSGKLSRELDFVSHHVRTKLDELKRQEVSRLRMLLKAKMDAEQDPNVQVDHLNLLKQFEHLDPQNQHTFEARDLELLIQTATRDLAQYDAAHHEEFKRYEMLKEHERRRYLESLGEEQRKEAERKLEEQQRRHREHPKVNVPGSQAQLKEVWEELDGLDPNRFNPKTFFILHDINSDGVLDEQELEALFTKELEKVYDPKNEEDDMREMEEERLRMREHVMKNVDTNQDRLVTLEEFLASTQRKEFGDTGEGWETVEMHPAYTEEELRRFEEELAAREAELNAKAQRLSQETEALGRSQGRLEAQKRELQQAVLHMEQRKQQQQQQQGHKAPAAHPEGQLKFHPDTDDVPVPAPAGDQKEVDTSEKKLLERLPEVEVPQHL
notes: the C-terminal limit 461 is the one printed for NUCB1 ΔN, which was made with the same reverse primer; Cloned in pET-28a between EcoR I and Hind III from a HEK293T cDNA library; No removal of the His6 tag is described; also called Calnuc; intact NUCB1; source: E. coli BL21(DE3)/pRARE, purified (Ni-NTA agarose; analysed by SEC on Superdex 200)
Take B1: in data set [2], the stoichiometry N – broadly, a count of units in the complex or per binding partner – amounted to 2.

B2: NUCB1 ΔN (239-461 aa) (domain or fragment, human, UniProt Q02818 239-461, looked up)
chain: DPNRFNPKTFFILHDINSDGVLDEQELEALFTKELEKVYDPKNEEDDMREMEEERLRMREHVMKNVDTNQDRLVTLEEFLASTQRKEFGDTGEGWETVEMHPAYTEEELRRFEEELAAREAELNAKAQRLSQETEALGRSQGRLEAQKRELQQAVLHMEQRKQQQQQQQGHKAPAAHPEGQLKFHPDTDDVPVPAPAGDQKEVDTSEKKLLERLPEVEVPQHL
notes: Cloned in pET-28a; source: E. coli BL21(DE3)/pRARE, purified (Ni-NTA agarose; analysed by SEC on Superdex 200)
B2: the “stoichiometry N” value in data set [2] came out at 2.
With GUGGUCAGUCGAGUGGUAACACUGUCUGGUAACGAUGU (ssRNA) [miR-200a-3p], the Kd in the data set with NUCB1 ΔZ stood at 0.3 ± 0.01 nM; in the data set with NUCB1 ΔN, 0.6 ± 0.09 nM; with NUCB1 CaBD, 5.2 ± 0.2 nM.
